This passage reports Kd, koff and kon results from patent US20220177594A1 (ZOETIS SERVICES, published 2022).

The test concerns the target T1, ANTIBODY EXPRESSION CONTROL.
T1 construct: also called mouse anti-canine antibody (capture reagent of the expression control ELISA)
The test is described as follows: SPR Biacore, expression control. The procedure:
The affinity with which candidate mAbs bind canine, feline, and human (SEQ ID NO: 122; Human_OSMR) (R&D Systems, Minneapolis, Minn.) OSMR was determined using surface plasmon resonance (SPR) on a Biacore system (Biacore Life Sciences (GE Healthcare), Uppsala, Sweden). To avoid affinity differences associated with differential surface preparation that can occur when immobilizing antibodies to surfaces; OSMR from each species was directly conjugated to individual surfaces. Immobilization was obtained by amine coupling 5 μg/mL OSMR using N-hydroxysuccinimide (NHS)/1-Ethyl-3-(3-dimethylaminopropyl) carbodiimide (EDC) chemistry. Chips were quenched with ethanolamine and the affinity with which all candidate mAbs bound to the immobilized OSMR was evaluated. All curves were fit to a 1:1 model. […] Results for affinity measurements are described herein.
Data from an ELISA represents an equilibrium state where the antibody is allowed to associate and dissociate over a one-hour period resulting in steady-state binding. Using Biacore, the target protein is immobilized to a surface and the antibody is passed over this surface in a mobile liquid phase. Protein-protein interaction is determined from changes in the surface resonance which allows for calculation of association (kₐ), disassociation (kd), and affinity constant (KD). While not wishing to be bound to one hypothesis we present data from ELISA and Biacore experiments, using the same preparation of antibody, that may result in agreement between the two methods with respect to binding but also may show contradictory results due to the nature of the binding kinetics and different assay dynamics. The data presented in Table A (in combination with experimental results from yeast display mutational analysis in Example 21) allow for the definition of a structure:function relationship to be defined between the anti-OSMR antibodies described here and their ability to bind and block IL-31 and OSM-mediated signaling through the OSMR receptor.

B1: Mu_09E09_VH (SEQ ID NO: 35)_S35A (antibody, V domains shown)
VH: DVKLVESGEGLVKPGGSLKLSCAASGFTFSSYAMAWVRQTPEKRLEWVAYISSGGDYIYYADTVKGRFTISRDNARNTLYLQMSSLKSEDTAMYYCTRDPITGTFAYWGQGTLVTVSA
VL: DLQMTQTTSSLSASLGDRVTISCRASQDINNYLNWYQQKPDGTVKLLIYYTSTLHSGVPSRFSGSGSGTDYSLTISNLEQEDIATYFCQQGNTLPWTFGGGTKLEIKR
Turning to B1, the Kd was 0.18 nM, the koff came out at 5.34e-05 s⁻¹ and the kon is 297000 M⁻¹ s⁻¹.

B2: Mu_09E09_VH (SEQ ID NO: 35)_T102A (antibody, V domains shown)
VH: DVKLVESGEGLVKPGGSLKLSCAASGFTFSSYAMSWVRQTPEKRLEWVAYISSGGDYIYYADTVKGRFTISRDNARNTLYLQMSSLKSEDTAMYYCTRDPIAGTFAYWGQGTLVTVSA
VL: DLQMTQTTSSLSASLGDRVTISCRASQDINNYLNWYQQKPDGTVKLLIYYTSTLHSGVPSRFSGSGSGTDYSLTISNLEQEDIATYFCQQGNTLPWTFGGGTKLEIKR
For the molecule B2, the equilibrium dissociation constant (Kd) worked out at 0.172 nM, the koff turned out to be 5.33e-05 s⁻¹ and the kon was 311000 M⁻¹ s⁻¹.

B3: Mu_09E09_VH (SEQ ID NO: 35)_Y59A (antibody, V domains shown)
VH: DVKLVESGEGLVKPGGSLKLSCAASGFTFSSYAMSWVRQTPEKRLEWVAYISSGGDYIAYADTVKGRFTISRDNARNTLYLQMSSLKSEDTAMYYCTRDPITGTFAYWGQGTLVTVSA
VL: DLQMTQTTSSLSASLGDRVTISCRASQDINNYLNWYQQKPDGTVKLLIYYTSTLHSGVPSRFSGSGSGTDYSLTISNLEQEDIATYFCQQGNTLPWTFGGGTKLEIKR
B3: the dissociation constant (Kd) turned out to be 0.147 nM, the koff came out at 4.52e-05 s⁻¹ and the kon was determined as 307000 M⁻¹ s⁻¹.

B4: Mu_09E09_VH (SEQ ID NO: 35)_I101A (antibody, V domains shown)
VH: DVKLVESGEGLVKPGGSLKLSCAASGFTFSSYAMSWVRQTPEKRLEWVAYISSGGDYIYYADTVKGRFTISRDNARNTLYLQMSSLKSEDTAMYYCTRDPATGTFAYWGQGTLVTVSA
VL: DLQMTQTTSSLSASLGDRVTISCRASQDINNYLNWYQQKPDGTVKLLIYYTSTLHSGVPSRFSGSGSGTDYSLTISNLEQEDIATYFCQQGNTLPWTFGGGTKLEIKR
As for B4, the dissociation constant (Kd) is 0.172 nM, the koff was 5.4e-05 s⁻¹ and the kon amounted to 314000 M⁻¹ s⁻¹.

B5: Mu_09E09_VH (SEQ ID NO: 35)_P100A (antibody, V domains shown)
VH: DVKLVESGEGLVKPGGSLKLSCAASGFTFSSYAMSWVRQTPEKRLEWVAYISSGGDYIYYADTVKGRFTISRDNARNTLYLQMSSLKSEDTAMYYCTRDAITGTFAYWGQGTLVTVSA
VL: DLQMTQTTSSLSASLGDRVTISCRASQDINNYLNWYQQKPDGTVKLLIYYTSTLHSGVPSRFSGSGSGTDYSLTISNLEQEDIATYFCQQGNTLPWTFGGGTKLEIKR
Regarding B5, the Kd amounted to 0.0786 nM, the off-rate constant (koff) is 2.35e-05 s⁻¹ and the association rate constant (kon) was found to be 300000 M⁻¹ s⁻¹.

B6: Mu_09E09_VH (SEQ ID NO: 35)_D99A (antibody, V domains shown)
VH: DVKLVESGEGLVKPGGSLKLSCAASGFTFSSYAMSWVRQTPEKRLEWVAYISSGGDYIYYADTVKGRFTISRDNARNTLYLQMSSLKSEDTAMYYCTRAPITGTFAYWGQGTLVTVSA
VL: DLQMTQTTSSLSASLGDRVTISCRASQDINNYLNWYQQKPDGTVKLLIYYTSTLHSGVPSRFSGSGSGTDYSLTISNLEQEDIATYFCQQGNTLPWTFGGGTKLEIKR
For B6, the Kd came to 0.219 nM, the koff was found to be 6.88e-05 s⁻¹ and the on-rate constant (kon) was 314000 M⁻¹ s⁻¹.

B7: Mu_09E09_VH (SEQ ID NO: 35)_Y57A (antibody, V domains shown)
VH: DVKLVESGEGLVKPGGSLKLSCAASGFTFSSYAMSWVRQTPEKRLEWVAYISSGGDAIYYADTVKGRFTISRDNARNTLYLQMSSLKSEDTAMYYCTRDPITGTFAYWGQGTLVTVSA
VL: DLQMTQTTSSLSASLGDRVTISCRASQDINNYLNWYQQKPDGTVKLLIYYTSTLHSGVPSRFSGSGSGTDYSLTISNLEQEDIATYFCQQGNTLPWTFGGGTKLEIKR
B7: the dissociation constant (Kd) is 0.208 nM, the off-rate (koff) was determined as 6.34e-05 s⁻¹ and the kon amounted to 305000 M⁻¹ s⁻¹.

B8: Mu_09E09_VH (SEQ ID NO: 35)_Y50A (antibody, V domains shown)
VH: DVKLVESGEGLVKPGGSLKLSCAASGFTFSSYAMSWVRQTPEKRLEWVAAISSGGDYIYYADTVKGRFTISRDNARNTLYLQMSSLKSEDTAMYYCTRDPITGTFAYWGQGTLVTVSA
VL: DLQMTQTTSSLSASLGDRVTISCRASQDINNYLNWYQQKPDGTVKLLIYYTSTLHSGVPSRFSGSGSGTDYSLTISNLEQEDIATYFCQQGNTLPWTFGGGTKLEIKR
Consider B8, for which the Kd worked out at 0.179 nM, the off-rate constant (koff) is 5.4e-05 s⁻¹ and the kon was 301000 M⁻¹ s⁻¹.

B9: Mu_09E09_VH (SEQ ID NO: 35)_F105A (antibody, V domains shown)
VH: DVKLVESGEGLVKPGGSLKLSCAASGFTFSSYAMSWVRQTPEKRLEWVAYISSGGDYIYYADTVKGRFTISRDNARNTLYLQMSSLKSEDTAMYYCTRDPITGTAAYWGQGTLVTVSA
VL: DLQMTQTTSSLSASLGDRVTISCRASQDINNYLNWYQQKPDGTVKLLIYYTSTLHSGVPSRFSGSGSGTDYSLTISNLEQEDIATYFCQQGNTLPWTFGGGTKLEIKR
In the case of B9, the dissociation constant (Kd) amounted to 0.138 nM, the koff came to 4.66e-05 s⁻¹ and the on-rate (kon) was found to be 338000 M⁻¹ s⁻¹.

B10: Mu_09E09_VL (SEQ ID NO: 37)_Y32A (antibody, V domains shown)
VH: DVKLVESGEGLVKPGGSLKLSCAASGFTFSSYAMSWVRQTPEKRLEWVAYISSGGDYIYYADTVKGRFTISRDNARNTLYLQMSSLKSEDTAMYYCTRDPITGTFAYWGQGTLVTVSA
VL: DLQMTQTTSSLSASLGDRVTISCRASQDINNALNWYQQKPDGTVKLLIYYTSTLHSGVPSRFSGSGSGTDYSLTISNLEQEDIATYFCQQGNTLPWTFGGGTKLEIKR
In the case of B10, the Kd was 0.294 nM, the off-rate constant (koff) came out at 8.76e-05 s⁻¹ and the kon worked out at 298000 M⁻¹ s⁻¹.

B11: Mu_02D09_VL (SEQ ID NO: 33)_S56A (antibody, V domains shown)
VH: EVQLVESGGGLVKPGGSLTLSCAASGFTFSDYGMHWLRQAPEKGLEWVAYISSGSRAVFFADTVKGRFTISRDNAKNTLFLQMTSLRSDDTAMYYCARDRYDGRGFAYWGQGTLVTVSA
VL: DIVLTQSPATLSVTPGDSVSLSCRASQSISNNLHWYQQTSHESPRLLITYASQSIAGIPSRFSGSGSGTDFTLSINSVETEDFGMYFCQQSNSWPLTFGAGTKLELKR
Turning to B11, the dissociation constant Kd came to 0.844 nM, the off-rate constant (koff) stood at 0.000111 s⁻¹ and the kon was 132000 M⁻¹ s⁻¹.

B12: Mu_02D09_VL (SEQ ID NO: 33)_L96A (antibody, V domains shown)
VH: EVQLVESGGGLVKPGGSLTLSCAASGFTFSDYGMHWLRQAPEKGLEWVAYISSGSRAVFFADTVKGRFTISRDNAKNTLFLQMTSLRSDDTAMYYCARDRYDGRGFAYWGQGTLVTVSA
VL: DIVLTQSPATLSVTPGDSVSLSCRASQSISNNLHWYQQTSHESPRLLITYASQSISGIPSRFSGSGSGTDFTLSINSVETEDFGMYFCQQSNSWPATFGAGTKLELKR
Regarding B12, the dissociation constant (Kd) amounted to 0.0659 nM, the koff is 2.43e-05 s⁻¹ and the association rate constant (kon) was 370000 M⁻¹ s⁻¹.

B13: Mu_02D09_VL (SEQ ID NO: 33)_W94A (antibody, V domains shown)
VH: EVQLVESGGGLVKPGGSLTLSCAASGFTFSDYGMHWLRQAPEKGLEWVAYISSGSRAVFFADTVKGRFTISRDNAKNTLFLQMTSLRSDDTAMYYCARDRYDGRGFAYWGQGTLVTVSA
VL: DIVLTQSPATLSVTPGDSVSLSCRASQSISNNLHWYQQTSHESPRLLITYASQSISGIPSRFSGSGSGTDFTLSINSVETEDFGMYFCQQSNSAPLTFGAGTKLELKR
In the case of B13, the Kd is 0.0977 nM, the koff was 3.16e-05 s⁻¹ and the association rate constant (kon) came out at 323000 M⁻¹ s⁻¹.
